Reference: the nanobody polyreactivity screen of Harvey et al. (2022)

Assay: yeast display, Sf9 membrane polyspecificity reagent, FACS + sequencing; frameworks hold sequencing errors
Outline: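 Using colony PCR, genes from sorted yeast display clones were amplified, then sequenced on MiSeq at 2 × 250 and filtered by CDR length. The clones had been stained with 10% biotinylated, detergent-solubilized Sf9 membrane reagent for 1 hour at 4 °C and sorted by FACS into low and high (top ~1%) gates on anti-HA and streptavidin fluorescence. Polyreactivity labels come from the gate of origin.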

Sequence | polyreactivity (PSR sort gate)
QVQLVESGGGLVQAGGSLRLSCAASGRIFKLYAMGWYRQEPGKVRELVASITWGGGSTNYADSVKGRFTISRDNAKNTVYLQMNSLKQEDTAVYYCAAVYSKFAVFWEYDYWGQGTQVTVSS | low polyreactivity
QVQLVESGGGLVQAGGSLRLSCAASGRTFSYYAMGWYRKAPGKERELVAAFSGRGASTYYADSVKGRFTISRDNAKNTVYVQMNSLKPEDTAVYYCNAVPYYQYEYWGQGTQVTVSS | low polyreactivity
QVQLVESGGGLVQAGGSLRLSCAASGFTFKSYAMGWYRPAPGKERELVAGITRTGVSTYYADSVKGRFTISRDNAKNTVYLLMNSLKPEDTAVYYCAAGIRHIYQSYAFYKFDYWGQGTQVTVSS | high polyreactivity
QVQLVESGGGLVQAGGSLRLSCAASGSTFRSNAMGWYRQAPGKERELVASITSRGGSTYYADSVKGRFTISRDNAKNTVYLQMNSLKPEDTAVYYCATARSYLTYSYHYDYWGQGTQVTVSS | low polyreactivity
QVQLVESGGGLVQAGGSLRLSCAASGSTFRIYAMGWYRQAPGKERELVAAISSGGRTNYADSVKGRFTISRDNAKNNVYLQMNSLKPEDTAVYYCNAVFLPTYHFDYWGQGTQVTVSS | high polyreactivity
QVQLVESGGGLVQAGCRLRLSCAASGININAMGWYRQAPGKERELVAAISRGGSTYYADSVKGRFTISRDNAKNTVYLQMNSLKPEDTAVYYCAKLIGRWRLYHTFVKGDYWGQGTQVTVSS | high polyreactivity
QVQIVESGGGLVQAGGTLRISCAASGFTLYYYAMGWSRQAPGKERELVAAITSSGTSTYYADSVKGRFTISRDNAKNTVYLQMNSLKPEDTAVYYCAAVSKIYHYRAVRLDDYWGQGTQVSVSS | low polyreactivity
QVQLVESGGGLVQAGGSLRLSCASSGRTFNFYAMGWYRQAPGKERELVAAISHGDSTYYADSVKGRFTISRDNAKNTVYLQMNSLKPEDTAVYYCAASQKYYLLKYEYWGQGTQVTVSS | low polyreactivity
QVQLVESGGGLVQAGGSLRLSCAASGFTFNGYAMGWYRQAPGKERELVAGITRRGGITYYADSVKGRFTISRDNAKNTVYLQMNSLNPEDTAVYYCNAYPRYIIPSIVNGYNYWGQGTQVTVSS | high polyreactivity
QVQHVESGGGLVQAGGSLRLSCASSGFIFYKYVMGWYRQAPGKERELVAAINWSGGSTYYADSVKGRFTISRDNAKNTVYLQMNSLKPDVTAVYYCAALSQYRYDYWGQGTQVTVSS | high polyreactivity
QVQLVESGGGLVQAGGSLRLTCAASGFIFPWNAMAWFRQAPRKERELVAAISFSGGSTYYADSVKGRFTISRDNAKNTVYLQMNSLKPEDTAVYYCAKRTWDLRRTRHYYWGQGTQVTVSS | low polyreactivity
QVQLVESGGGLVQAGGSLRLSCAASGSIFYIYAMGWYRQAPGKERELVAAISWRTSSTYYADSVKGRFTISRDNAKNTVYLQMNSLKPEDTAVYYCAAETWLGSWRQVGMDYWGQGTQVTVSS | high polyreactivity
QVQLVESGGGLVQAGGSLRLSCAASGRTFYFNAMGWYRQAPGKERELVATITSDGSTNYADSVKGRFTISRDNAKNTVYLQMNSLKPEDTAVYYCAADYYRDIWPWYPLYNYWGQGTQVTVSS | low polyreactivity
QVHLVESGVGLVKAGGTLRLSCAASGGIFIRNAMGWYRQAPGKERELVATISNAGSTYADAVKGRFTISRDNAKNPVHLQMHSLKPEDTAVYYCNRDDWTYPVYQGLQEYDYWGQGTQVSVSS | low polyreactivity
QFQLVESGGGLVQAGGSLRLSCAASGRTFQHNVMGWYIQAPGKERELVASITCRGGSTYYADSVKGRFTISRDNAKNTVYLQMNSLKPEDTAVYYCAARNGFRRVRFDYWGQGTQVTVSS | low polyreactivity
QVQLVESGGGLVQEGGSLRLSCAASGRIFRVYTMGWYRQAPGKERELVASITGRGGSTYYADSVKGRFTISRDNAKNTVYLQMNSLKPEDTAVYYCAAQTFRGFSEFDYWGQGTQVTLSS | high polyreactivity
QVQLVESGGGLVQAGGSLRLSCAASGRTFRYYTMGWYRQAPGKEREFVAAISSTGGTYYADSVKGRFTISRDNAKNTVYLLMNSLKPEDTAFYYCAATFIQVVVNVQLYDYDYWGQGTQVTVSS | low polyreactivity
